What was measured:
pNPB = test: Proxy for plastic degradation [Relative activity]
PET = test: Proxy for plastic degradation [Released monomer concentration (HPLC/LC-MS) (terephthalic acid)]; settings: pH 8

Row | Protein | Proxy for plastic degradation (pNPB; pH 3) [%] | Proxy for plastic degradation (pNPB; pH 4) [%] | Proxy for plastic degradation (pNPB; pH 5) [%] | Proxy for plastic degradation (pNPB; pH 6) [%] | Proxy for plastic degradation (pNPB; pH 7, 17 °C) [%] | Proxy for plastic degradation (pNPB; pH 7, 22 °C) [%] | Proxy for plastic degradation (pNPB; pH 7, 28 °C) [%] | Proxy for plastic degradation (pNPB; pH 7, 37 °C) [%] | Proxy for plastic degradation (pNPB; pH 7, 42 °C) [%] | Proxy for plastic degradation (pNPB; pH 7, 55 °C) [%] | Proxy for plastic degradation (pNPB; pH 7, 60 °C) [%] | Proxy for plastic degradation (pNPB; pH 7, 70 °C) [%] | Proxy for plastic degradation (pNPB; pH 7, 80 °C) [%] | Proxy for plastic degradation (pNPB; pH 7, 90 °C) [%] | Proxy for plastic degradation (pNPB; pH 8) [%] | Proxy for plastic degradation (pNPB; pH 9.2) [%] | Proxy for plastic degradation (pNPB; pH 10.2) [%] | Proxy for plastic degradation (PET) [µM]
1 | unnamed (protein) MNVLTKCKLALGIIAIFFSLPSFAVPCSDCSNGFERGQVPRVDQLESSRGPYSVKTINVSRLARGFGGGTIHYSTESGGQQGIIAVVPGYVSLEGSIKWWGPRLASWGFTVITIDTNTIYDQPDSRASQLSAAIDYVIDKGNDRSSPIYGLVDPNRVGVIGWSMGGGGSLKLATDRKIDAVIPQAPWYLGLSRFSSITSPTMIIACQADVVAPVSVHASRFYNQIPGTTPKAYFEIALGSHFCANTGYPSEDILGRNGVAWMKRFIDKDERYTQFLCGQNFDSSLRVSEYRDNCSYY | 0 | 0 | 0 | 11 | 60 | 60 | 62 | 72 | 82 | 100 | 81 | 81 | 55 | 35 | 100 | 76 | 48 | 
2 | unnamed (protein) MPITARNTLASLLLASSALLLSGTAFAANPPGGDPDPGCQTDCNYQRGPDPTDAYLEAASGPYTVSTIRVSSLVPGFGGGTIHYPTNAGGGKMAGIVVIPGYLSFESSIEWWGPRLASHGFVVMTIDTNTIYDQPSQRRDQIEAALQYLVNQSNSSSSPISGMVDSSRLAAVGWSMGGGGTLQLAADGGIKAAIALAPWNSSINDFNRIQVPTLIFACQLDAIAPVALHASPFYNRIPNTTPKAFFEMTGGDHWCANGGNIYSALLGKYGVSWMKLHLDQDTRYAPFLCGPNHAAQTLISEYRGNCPY | 0 | 0 | 0 | 4 | 63 | 70 | 71 | 77 | 76 | 82 | 100 | 100 | 81 | 82 | 100 | 99 | 90 | 900

— the PETadex activity labels (doi:10.1128/aem.02773-17)
